The target in the data set is SAF-A SPRNK domain (SPRY/PNK) WT (UniProt Q00839 221-679). In words: EMSA; 8 mM HEPES pH 7.5, 60 mM KOAc, 16 mM MgOAc; 1 h on ice; 0.125 uM RNA, 0-8 uM protein; 7% acrylamide gel; n=3. The following applies: protein: recombinant; (nickel IMAC); label: DY681.
Sequence of SAF-A SPRNK domain (SPRY/PNK) WT (Q00839 221-679): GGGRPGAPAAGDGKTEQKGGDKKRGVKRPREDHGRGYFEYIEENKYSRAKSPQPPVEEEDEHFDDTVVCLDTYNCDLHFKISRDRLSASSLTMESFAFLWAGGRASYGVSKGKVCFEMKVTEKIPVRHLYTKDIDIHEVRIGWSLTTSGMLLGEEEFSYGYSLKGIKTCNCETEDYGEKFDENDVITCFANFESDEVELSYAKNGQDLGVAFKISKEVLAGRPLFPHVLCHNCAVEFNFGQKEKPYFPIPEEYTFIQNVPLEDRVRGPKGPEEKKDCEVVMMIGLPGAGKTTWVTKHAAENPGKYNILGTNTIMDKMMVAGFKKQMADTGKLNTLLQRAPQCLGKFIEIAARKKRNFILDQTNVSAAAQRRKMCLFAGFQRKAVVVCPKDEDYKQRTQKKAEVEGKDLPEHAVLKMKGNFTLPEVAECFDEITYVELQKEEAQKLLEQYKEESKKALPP

Regarding AAAAAAAAAAAAAAAAAAAA (ssRNA) [oligoA20-DY681], the binding result was “binds”.

For the origin of these results see doi:10.1101/2024.06.16.599208, “A transcription-driven microgel network poised near the sol-gel transition”.
